Test results reported in article PMC8615271.

Target: PDI and ERp72 (human)
Assay: ITC; 280 µM P5 Cys55/58/190/193Ala mutant in the syringe (50 mM HEPES pH 7.2, 150 mM NaCl) titrated into 40 µM PDI or ERp72 in the cell (50 mM HEPES pH 7.2); 30 °C; one set of sites model

B1: Catalytically-inactive P5 (Cys55/58/190/193Ala) mutant (enzyme)
chain: LYSSSDDVIELTPSNFNREVIQSDSLWLVEFYAPWAGHAQRLTPEWKKAATALKDVVKVGAVDADKHHSLGGQYGVQGFPTIKIFGSNKNRPEDYQGGRTGEAIVDAALSALRQLVKDRLGGRSGGYSSGKQGRSDSSSKKDVIELTDDSFDKNVLDSEDVWMVEFYAPWAGHAKNLEPEWAAAASEVKEQTKGKVKLAAVDATVNQVLASRYGIRGFPTIKIFQKGESPVDYDGGRTRSDIVSRALDLFSDNAPPPELLEIINEDIAKRTCEEHQLCVVAVLPHILDTGAAGRNSYLEVLLKLADKYKKKMWGWLWTEAGAQSELETALGIGGFGYPAMAAINARKMKFALLKGSFSEQGINEFLRELSFGRGSTAPVGGGAFPTIVEREPWDGRDGELPVEDDIDLSDVELDDLGKDEL
A Kd of 2.4 to 4.1 µM was found for B1 in this work.
